Data published in IntAct's records for PubMed 22705208.

B1: Fibroblast growth factor 12 (Homo sapiens), P61328-2 (parent)
chain: MESKEPQLKGIVTRLFSQQGYFLQMHPDGTIDGTKDENSDYTLFNLIPVGLRVVAIQGVKASLYVAMNGEGYLYSSDVFTPECKFKESVFENYYVIYSSTLYRQQESGRAWFLGLNKEGQIMKGNRVKKTKPSSHFVPKPIEVCMYREPSLHEIGEKQGRSRKSSGTPTMNGGKVVNQDST

Variants of: B1
Conditions: with scn5a_human SCN5A

Which “effect of a mutation on the interaction” value does the source give for K9E here?
The value was “disrupting interaction strength”.

Variants of: B1
Conditions: with scn5a_human SCN5A
Remark: another data set of the same source

For K9E, which “effect of a mutation on the interaction” value is on record?
The value was “decreasing interaction strength”.
